Experimental data from article PMC9433777.

How the values were obtained:
[1] = target: HIV-1 envelope Q168.a2 (subtype A) (HIV-1)
[2] = target: HIV-1 envelope QH0692.42 (subtype B) (HIV-1)
[3] = target: HIV-1 envelope Q842.d12 (subtype A) (HIV-1)
[4] = target: HIV-1 envelope Du172.17 (subtype C) (HIV-1)
[5] = target: HIV-1 envelope CAP45.G3 (subtype C) (HIV-1)
[6] = target: HIV-1 envelope CAP214.15 (subtype C) (HIV-1)
[7] = target: HIV-1 envelope ZM197.7 (subtype C) (HIV-1)
[8] = target: HIV-1 envelope Q23.17 (subtype A) (HIV-1)
[9] = target: HIV-1 envelope 6535 (subtype B) (HIV-1)
[10] = target: HIV-1 envelope TRO.11 (subtype B) (HIV-1)
[11] = target: HIV-1 envelope CAP210.E8 (subtype C) (HIV-1)
[12] = target: HIV-1 envelope Q461.e2 (subtype A) (HIV-1)
[13] = target: HIV-1 envelope ZM233.6 (subtype C) (HIV-1)
[14] = target: HIV-1 envelope Du156.12 (subtype C) (HIV-1)
[15] = target: HIV-1 envelope Du422.01 (subtype C) (HIV-1)

Substance | IC50 of neutralisation of HIV-1 pseudovirus, TZM-bl assay [1] [µg/mL] | IC50 of neutralisation of HIV-1 pseudovirus, TZM-bl assay [2] [µg/mL] | IC50 of neutralisation of HIV-1 pseudovirus, TZM-bl assay [3] [µg/mL] | IC50 of neutralisation of HIV-1 pseudovirus, TZM-bl assay [4] [µg/mL] | IC50 of neutralisation of HIV-1 pseudovirus, TZM-bl assay [5] [µg/mL] | IC50 of neutralisation of HIV-1 pseudovirus, TZM-bl assay [6] [µg/mL] | IC50 of neutralisation of HIV-1 pseudovirus, TZM-bl assay [7] [µg/mL] | IC50 of neutralisation of HIV-1 pseudovirus, TZM-bl assay [8] [µg/mL] | IC50 of neutralisation of HIV-1 pseudovirus, TZM-bl assay [9] [µg/mL] | IC50 of neutralisation of HIV-1 pseudovirus, TZM-bl assay [10] [µg/mL] | IC50 of neutralisation of HIV-1 pseudovirus, TZM-bl assay [11] [µg/mL] | IC50 of neutralisation of HIV-1 pseudovirus, TZM-bl assay [12] [µg/mL] | IC50 of neutralisation of HIV-1 pseudovirus, TZM-bl assay [13] [µg/mL] | IC50 of neutralisation of HIV-1 pseudovirus, TZM-bl assay [14] [µg/mL] | IC50 of neutralisation of HIV-1 pseudovirus, TZM-bl assay [15] [µg/mL]
CAP256-VRC26.25 produced in HEK293 (antibody) | 1.73 | > 50 | > 50 | > 50 | 0.0013 | 3.12 | 0.11 | 0.0014 | > 50 | > 50 | 0.0012 | 0.67 | 0.0044 | 0.15 | 0.11
CAP256-VRC26.25 produced in N. benthamiana (ΔXTFT) with Cas9/sgRNAs coexpression (antibody) | 3.05 | > 50 | > 50 | > 50 | 0.0013 | 2.77 | 0.098 | 0.0016 | > 50 | > 50 | 0.0014 | 1.61 | 0.005 | 0.041 | 0.2
CAP256-VRC26.25 produced in N. benthamiana (ΔXTFT) without Cas9/sgRNAs coexpression (antibody) | 2.94 | > 50 | > 50 | > 50 | 0.0014 | 4.31 | 0.056 | 0.0016 | > 50 | > 50 | 0.0015 | 1.73 | 0.0042 | 0.034 | 0.1
